Results: the RNAGym collection of RNA variant scans (doi:10.1073/pnas.2313332121)

B1: TPR t1 (parent)
chain: GACCAAUCUGCCCUCAGAGCUCGAGAACAUCUUCGGAUGCAGAGGAGGCAGGCUUCGGUGGCGCGAUAGCGCCAACGUCCUCAACCUCCAAUGCAUCCCACCACAUGAUGAUGCCUGAAGAGCCUUGGUUUUUUG

Variants of: B1
Test: polymerase ribozyme fitness, log enrichment relative to wild type (log ratio); higher = more active; in vitro selection for triplet polymerase activity
Outline: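 To select mutant libraries of each subunit of a heterodimeric triplet polymerase ribozyme, built by PCR and transcribed, each was annealed with a biotinylated primer, partner subunit and triplets, then incubated frozen at −7 °C. Extended constructs were gel-excised, captured on streptavidin beads and amplified by RT-PCR, in one round carried out in triplicate. Illumina sequencing of input and output libraries kept genotypes with ≥10 input reads and ≥1 read per output. Fitness is the base-2 logarithm of genotype enrichment relative to wild-type enrichment, from inverse-variance-weighted replicate averages.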

Row | Variant | polymerase ribozyme fitness (log ratio)
1 | A29G A46C A50G U54C G120U C123A U129C | -4.1
2 | C28U G58A | -2.03
3 | A29U G69C U81G U87G | -3.43
4 | A29U U112G | -0.993
5 | A29U U112A | -0.754
6 | A29U C40U C49A U106A | -1.76
7 | U30C G71A | -2.58
8 | A29U G52C C73G U132C G135U | -3.19
9 | A29C C64A U109G G113A | -6.15
10 | A29C C56U U81A | -2.74
11 | A29U C124U U131A | -0.63
12 | A29C G47A G69U | -1.84
13 | A29G U92A | -3.71
14 | A29G U112A | 0.263
15 | C28U G63U | -3.07
16 | C28U G63A | -3.62
17 | A29G G47A G51U C123G U129A U133G | -5.68
18 | C28U C79G | -4.3
19 | A29G A91C | -1.57
20 | A29G A37C C102A | -4.8
21 | A29C G51A | -6.28
22 | U30A A95G A121U | -3.78
23 | A29G G45A A121C G128C | -2.4
24 | A29G A84C C94U U106A G120A U125G | -0.885

Row | Variant | polymerase ribozyme fitness (log ratio)
25 | A29C U130C | -2.27
26 | A29G A90C | -2.34
27 | A29U C34U G47U C53U | -6.51
28 | A29G U131C | -1.02
29 | A29U C34U | -4.41
30 | C28U G58C G113C U132C | -4.51
31 | U30C C115A | -2.84
32 | A29U G77U | -1.77
33 | A29G C115U | -1.56
34 | A29G C53G C62U U106A G117C | -4.22
35 | U30C C124U | -1.4
36 | A29G C72U | -1.98
37 | A29G C72G | -1.98
38 | A29C G52U G63C | -2.49
39 | A29U C76A | -1.91
40 | U30C C49U G63C G77A | -6.71
41 | U30C C72U U87A U112A | -2.41
42 | C28U G36A G48A | -3.89
43 | C28U C123A | -1.91
44 | C28U C101U G120U | -3.5
45 | A29U C56U G120C G127A | -2.48
46 | A29G G45U C73U U78G U87G | -2.9
47 | A29U U54A G71C | -1.61
48 | A29G C94A | -2.09

Row | Variant | polymerase ribozyme fitness (log ratio)
49 | A29G G63C | -1.45
50 | A29U G60A U78C C102A U112C | -3.58
51 | A29C G45A C115U | -4.57
52 | A29U C114U G120C C123U G128C | -4.45
53 | C28U C73G | -2.44
54 | C28U C73U | -1.11
55 | A29U C72U U92C | -2.98
56 | A29G U116A | -3.67
57 | U30C G58C C85G | -3.06
58 | A29C G45C G52A C85U | -5.05
59 | A29G G107A | -5.6
60 | A29C G39C | -3.97
61 | U30C A37C C73G U96A C115U | -5.56
62 | C28U C64A A95G C115A U129C U134A | -4.91
63 | A29U C70G U125G | -3.65
64 | A29U C56U A84G C97U | -3.9
65 | A29U G45C C115A U133A | -3.42
66 | A29G C53G U87C G113C | -3.02
67 | A29C A50U C123U U129G | -4.5
68 | A29G G77A U78A C123A | -2.27
69 | A29G G52U C70U U125A | -2.42
70 | A29C G93A | -3.03
71 | A29C G47U G60C C97U | -6
72 | A29C A74U | -2.93

Row | Variant | polymerase ribozyme fitness (log ratio)
73 | A29U U87G A90C | -3.17
74 | A29G A43G | -2.43
75 | A29U U96G U130C | -2.74
76 | A29U G39U A74U A91U U132A | -4.44
77 | A29G G60A U109A U112A G122A U130G | -6.7
78 | A29G G120A | -1.03
79 | A29C C31G G61U C101U A121U C124A | -5.89
80 | C28U G58C G61C | -2.78
81 | A29U C94A | -1.79
82 | U30C G36C C70G U78C A84C U112G | -6.17
83 | A29G G77U | -1.38
84 | C28U G45A G63C | -3.75
85 | A29C C49A G77A U78A | -3.15
86 | C28U G52U C101U | -4.04
87 | A29G C97U C101A A103U G120A U133G | -7
88 | A29G G71U | -1.72
89 | A29G G36A C53U U55C G69U G127C | -4.42
90 | A29U C31G C34G G44A G60A C114U | -6.84
91 | U30A G52U G60A | -4.07
92 | A29U G44A C101U | -4.87
93 | C28U G113U | -4.02
94 | A29G A50U C73G | -1.85
95 | A29G G39U C85U C89U | -4.23
96 | A29U G61A G127C | -3.2

Row | Variant | polymerase ribozyme fitness (log ratio)
97 | A29U C97A A121U | -4.33
98 | C28U G36C C79G A111U | -6.86
99 | A29G C62U | -1.68
100 | A29C A50U | -2.67
101 | A29U G60C C89A G110A | -5.77
102 | C28U C101A C123G G128U | -3.71
103 | A29U C34U A46U U87G | -5.9
104 | A29U A37U G60U C89U | -3.5
105 | A29U C31G C97G U112A U129G | -6.42
106 | C28U C53G U59G | -2.35
107 | C28U C88U | -1.61
108 | C28U C72U U112A G122A U129A | -4.79
109 | U30C C56G G60U A84C | -3.79
110 | C28U U112G | -1.97
111 | C28U U112A | -1.56
112 | C28U U112C | 0.129
113 | A29C U54C A84U G120C | -2.27
114 | A29U U112A U126G | -2.25
115 | A29U C31A G69A C104G G117C A121U | -7.2
116 | U30C C56A C82U C94U G113C | -5.15
117 | C28U G113C C123G | -3.9
118 | C28U G39A U54C C79A | -4.8
119 | A29G C40U G63A C104U G122A | -2.07
120 | A29G A118U G120C | -1.87

Row | Variant | polymerase ribozyme fitness (log ratio)
121 | A29C G61A C88G C114G | -6.84
122 | A29C C49U | -2.86
123 | A29U G52U C76A C123U G135U | -3.34
124 | A29U A50G U81C C114U | -1.72
125 | A29U G45U C73U A95G U131A | -4.04
126 | A29C C73U U96A | -5.54
127 | C28U U129G | -2.18
128 | A29U U130G | -2.07
129 | A29U A37U G44C C72G C114U | -4.21
130 | A29U G39U G61A G122A | -3.23
131 | A29C G36U C73U | -3.91
132 | A29C U55C C72U C115A U133A | -2.23
133 | C28U G45A G63U U78C | -5
134 | A29G C40A C97U G113C | -4.13
135 | A29C U55C C115A U133A | -2.81
136 | U30A G39C | -5.36
137 | A29G C79U | -1.06
138 | A29U G117A | -3.25
139 | A29U C89U | -2.05
140 | A29C C79U | -3.18
141 | A29G A103C U106A | -5.73
142 | U30A G71U | -4.91
143 | A29G G61A C124A | 0.686
144 | A29U G45U | -3.1

Row | Variant | polymerase ribozyme fitness (log ratio)
145 | C28U G52C U106A U112A | -1.6
146 | A29G A50C | -1.66
147 | A29U G45C G61A A111G C124G | -3.05
148 | A29C G44U C73G C82G U112C C115G | -7.14
149 | A29U C72G C104U G120C | -0.531
150 | A29G G51A | -3.06
151 | A29U C40U C72G A84C A100C U106A A119U | -3.21
152 | U30C C97G A108U U112A C124G | -7.16
153 | A29G G61A C99A U112C C124A G135C | -5.36
154 | A29C G77U U81C | -4.43
155 | A29U G44U G45A | -4.25
156 | U30C C70U G113C | -3.79
157 | C28U G45A G52A U116C | -4.51
158 | A29C C56G | -3.25
159 | A29G G117A | -2.22
160 | A29G G117C | -3.99
161 | C28U C89U | -2.51
162 | A29U G45U G69U | -2.7
163 | A29G | -0.987
164 | A29U | -1.67
165 | A29C | -2.15
166 | A29C U33C U55A C86A C124A | -6.12
167 | A29C A75G C124G U129C | -1.16
